The RNAGym collection of RNA variant scans (doi:10.1093/nar/gkz1192)

B1: CPEB3 Ribozyme (parent)
chain: UAACAGGGGGCCACAGCAGAAGCGUUCACGUCGCAGCCCCUGUCAGAUUCUGGUGAAUCUGCGAAUUCUGCUGUAUAUCUC

Variants of: B1
Assay: self-cleavage, relative activity (ratio to wild type); higher = more cleavage; in vitro, sequencing
How it was run: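 CPEB3 self-cleaving ribozyme mutant libraries were made by rounds of error-prone PCR, barcoded, and transcribed in vitro with T7 RNA polymerase for 5 hours at 37°C. Cleavage occurred during transcription and a 15 min DNase I step before EDTA stop. RNAs were reverse transcribed with template switching and Illumina-sequenced, with DNA sequencing mapping barcodes to variants. Relative activity is the variant's cleaved/total read fraction divided by wild type's (minimum 5 reads), averaged across three batches.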
G53A U66C gave a self-cleavage of 0.53.
With G53A U67A the self-cleavage was 0.55.
G53A U67C showed a self-cleavage of 0.41.
G53A U69A showed a self-cleavage of 0.67.
With G53A U69C the self-cleavage was 0.69.
For G53A U72A, the self-cleavage was 0.79.
Work on G53A U72C yielded a self-cleavage of 1.23.
For G53A U72G, the self-cleavage was 1.22.
With G53A U76C the self-cleavage was 1.01.
Work on G53A U78C yielded a self-cleavage of 1.06.
G53A U80A gave a self-cleavage of 1.18.
G53A U80C gave a self-cleavage of 1.17.
In the case of G53C, the self-cleavage is reported as 1.13.
G53C A56G showed a self-cleavage of 0.53.
G53C A57G gave a self-cleavage of 1.1.
G53C A64G showed a self-cleavage of 1.05.
Work on G53C A64U yielded a self-cleavage of 0.42.
For G53C A65G, the self-cleavage was 0.67.
G53C A75G showed a self-cleavage of 1.16.
G53C A75U showed a self-cleavage of 1.12.
G53C C62G showed a self-cleavage of 0.29.
Work on G53C C71U yielded a self-cleavage of 0.57.
With G53C G55A the self-cleavage was 0.98.
For G53C U58C, the self-cleavage was 0.68.
G53C U60A showed a self-cleavage of 0.56.
In the case of G53C U60C, the self-cleavage is reported as 0.55.
In the case of G53C U67C, the self-cleavage is reported as 0.17.
G53C U67G gave a self-cleavage of 0.54.
G53C U69A showed a self-cleavage of 0.49.
Work on G53C U69C yielded a self-cleavage of 0.64.
With G53C U72A the self-cleavage was 1.19.
Work on G53C U72C yielded a self-cleavage of 1.21.
Work on G53C U76A yielded a self-cleavage of 1.22.
With G53C U76C the self-cleavage was 1.06.
Variant G53C U78C has a self-cleavage of 1.08.
Variant G53C U80A has a self-cleavage of 1.22.
With G53C U80C the self-cleavage was 0.96.
G53U showed a self-cleavage of 1.21.
In the case of G53U A64G, the self-cleavage is reported as 0.97.
Variant G53U A65G has a self-cleavage of 0.61.
G53U A65U gave a self-cleavage of 0.25.
Work on G53U C68U yielded a self-cleavage of 1.13.
For G53U C81G, the self-cleavage was 1.24.
In the case of G53U U54A, the self-cleavage is reported as 0.98.
Variant G53U U58C has a self-cleavage of 1.08.
Variant G53U U66G has a self-cleavage of 0.66.
G53U U67C gave a self-cleavage of 0.21.
With G53U U69C the self-cleavage was 0.59.
With G53U U72A the self-cleavage was 0.94.
For G53U U72C, the self-cleavage was 1.2.
With G53U U74A the self-cleavage was 1.2.
In the case of G53U U74C, the self-cleavage is reported as 1.18.
In the case of G53U U76C, the self-cleavage is reported as 1.22.
U54A showed a self-cleavage of 1.09.
Work on U54A A56G yielded a self-cleavage of 0.82.
U54A A56U gave a self-cleavage of 0.66.
Work on U54A A57C yielded a self-cleavage of 0.77.
With U54A A57G the self-cleavage was 0.91.
U54A A57U gave a self-cleavage of 1.04.
U54A A64C gave a self-cleavage of 0.16.
Variant U54A A64G has a self-cleavage of 0.92.
Variant U54A A64U has a self-cleavage of 0.37.
U54A A65C gave a self-cleavage of 0.29.
With U54A A65G the self-cleavage was 0.55.
In the case of U54A A65U, the self-cleavage is reported as 0.26.
Variant U54A A75C has a self-cleavage of 1.19.
U54A A75G gave a self-cleavage of 1.
For U54A A75U, the self-cleavage was 1.21.
In the case of U54A A77C, the self-cleavage is reported as 1.12.
Variant U54A A77G has a self-cleavage of 1.06.
With U54A A77U the self-cleavage was 1.23.
With U54A C59G the self-cleavage was 0.35.
In the case of U54A C62A, the self-cleavage is reported as 0.32.
With U54A C62G the self-cleavage was 0.42.
Variant U54A C62U has a self-cleavage of 0.25.
With U54A C68A the self-cleavage was 0.44.
U54A C68U gave a self-cleavage of 1.03.
Work on U54A C71A yielded a self-cleavage of 0.42.
With U54A C79A the self-cleavage was 1.23.
Variant U54A C79G has a self-cleavage of 1.23.
With U54A C79U the self-cleavage was 1.16.
Work on U54A C81U yielded a self-cleavage of 1.2.
U54A G55A gave a self-cleavage of 0.8.
In the case of U54A G55U, the self-cleavage is reported as 1.15.
U54A G61A showed a self-cleavage of 0.73.
With U54A G61U the self-cleavage was 0.76.
Variant U54A G63A has a self-cleavage of 0.95.
U54A G70C gave a self-cleavage of 0.39.
Variant U54A G73A has a self-cleavage of 1.25.
U54A G73U gave a self-cleavage of 1.27.
Variant U54A U58A has a self-cleavage of 0.45.
Variant U54A U58C has a self-cleavage of 0.69.
U54A U58G gave a self-cleavage of 0.42.
With U54A U60A the self-cleavage was 0.68.
U54A U60C showed a self-cleavage of 0.67.
In the case of U54A U60G, the self-cleavage is reported as 0.65.
In the case of U54A U66C, the self-cleavage is reported as 0.49.
Work on U54A U66G yielded a self-cleavage of 0.65.
For U54A U67A, the self-cleavage was 0.67.
In the case of U54A U67C, the self-cleavage is reported as 0.46.
Variant U54A U67G has a self-cleavage of 0.36.
U54A U69A gave a self-cleavage of 0.86.
U54A U69C gave a self-cleavage of 0.63.
For U54A U69G, the self-cleavage was 0.92.
In the case of U54A U72A, the self-cleavage is reported as 1.02.
With U54A U72C the self-cleavage was 1.17.
Variant U54A U72G has a self-cleavage of 0.87.
U54A U74A gave a self-cleavage of 1.22.
U54A U74C showed a self-cleavage of 1.28.
In the case of U54A U74G, the self-cleavage is reported as 1.3.
With U54A U76A the self-cleavage was 1.13.
U54A U76C gave a self-cleavage of 1.04.
U54A U78A gave a self-cleavage of 1.19.
With U54A U78C the self-cleavage was 1.05.
With U54A U80A the self-cleavage was 1.21.
In the case of U54A U80C, the self-cleavage is reported as 1.14.
U54C showed a self-cleavage of 1.02.
U54C A56C gave a self-cleavage of 0.38.
For U54C A56G, the self-cleavage was 0.64.
With U54C A56U the self-cleavage was 0.52.
For U54C A57C, the self-cleavage was 0.23.
Work on U54C A57G yielded a self-cleavage of 0.66.
U54C A57U showed a self-cleavage of 0.56.
With U54C A64C the self-cleavage was 0.46.
Work on U54C A64G yielded a self-cleavage of 0.86.
For U54C A64U, the self-cleavage was 0.36.
In the case of U54C A65C, the self-cleavage is reported as 0.4.
With U54C A65G the self-cleavage was 0.49.
Work on U54C A65U yielded a self-cleavage of 0.32.
With U54C A75G the self-cleavage was 0.88.
In the case of U54C A75U, the self-cleavage is reported as 1.2.
Work on U54C A77C yielded a self-cleavage of 0.87.
Work on U54C A77G yielded a self-cleavage of 1.07.
With U54C A77U the self-cleavage was 1.07.
For U54C C59A, the self-cleavage was 0.3.
Work on U54C C59U yielded a self-cleavage of 0.68.
In the case of U54C C62A, the self-cleavage is reported as 0.13.
Variant U54C C62G has a self-cleavage of 0.13.
In the case of U54C C62U, the self-cleavage is reported as 0.18.
For U54C C68A, the self-cleavage was 0.43.
With U54C C68G the self-cleavage was 0.29.
Variant U54C C68U has a self-cleavage of 1.09.
Variant U54C C71A has a self-cleavage of 0.39.
Variant U54C C71U has a self-cleavage of 0.72.
Work on U54C C79A yielded a self-cleavage of 1.18.
With U54C C81G the self-cleavage was 1.3.
With U54C C81U the self-cleavage was 1.17.
In the case of U54C G55A, the self-cleavage is reported as 0.62.
U54C G55U gave a self-cleavage of 0.78.
With U54C G61A the self-cleavage was 0.65.
Variant U54C G61C has a self-cleavage of 0.3.
With U54C G63A the self-cleavage was 0.73.
With U54C G63C the self-cleavage was 1.01.
Variant U54C G63U has a self-cleavage of 1.13.
U54C G70A showed a self-cleavage of 0.43.
Work on U54C G73A yielded a self-cleavage of 1.26.
For U54C G73C, the self-cleavage was 1.33.
Work on U54C G73U yielded a self-cleavage of 1.22.
In the case of U54C U58A, the self-cleavage is reported as 0.33.
With U54C U58C the self-cleavage was 0.48.
In the case of U54C U60A, the self-cleavage is reported as 0.42.
Work on U54C U60C yielded a self-cleavage of 0.39.
U54C U60G gave a self-cleavage of 0.5.
U54C U66A gave a self-cleavage of 0.52.
With U54C U66C the self-cleavage was 0.37.
In the case of U54C U66G, the self-cleavage is reported as 0.39.
U54C U67A showed a self-cleavage of 0.48.
